B1: 1-phosphatidylinositol 4,5-bisphosphate phosphodiesterase gamma-2 (Homo sapiens), P16885 (parent)
chain: MSTTVNVDSLAEYEKSQIKRALELGTVMTVFSFRKSTPERRTVQVIMETRQVAWSKTADKIEGFLDIMEIKEIRPGKNSKDFERAKAVRQKEDCCFTILYGTQFVLSTLSLAADSKEDAVNWLSGLKILHQEAMNASTPTIIESWLRKQIYSVDQTRRNSISLRELKTILPLINFKVSSAKFLKDKFVEIGAHKDELSFEQFHLFYKKLMFEQQKSILDEFKKDSSVFILGNTDRPDASAVYLHDFQRFLIHEQQEHWAQDLNKVRERMTKFIDDTMRETAEPFLFVDEFLTYLFSRENSIWDEKYDAVDMQDMNNPLSHYWISSSHNTYLTGDQLRSESSPEAYIRCLRMGCRCIELDCWDGPDGKPVIYHGWTRTTKIKFDDVVQAIKDHAFVTSSFPVILSIEEHCSVEQQRHMAKAFKEVFGDLLLTKPTEASADQLPSPSQLREKIIIKHKKLGPRGDVDVNMEDKKDEHKQQGELYMWDSIDQKWTRHYCAIADAKLSFSDDIEQTMEEEVPQDIPPTELHFGEKWFHKKVEKRTSAEKLLQEYCMETGGKDGTFLVRESETFPNDYTLSFWRSGRVQHCRIRSTMEGGTLKYYLTDNLTFSSIYALIQHYRETHLRCAEFELRLTDPVPNPNPHESKPWYYDSLSRGEAEDMLMRIPRDGAFLIRKREGSDSYAITFRARGKVKHCRINRDGRHFVLGTSAYFESLVELVSYYEKHSLYRKMRLRYPVTPELLERYNMERDINSLYDVSRMYVDPSEINPSMPQRTVKALYDYKAKRSDELSFCRGALIHNVSKEPGGWWKGDYGTRIQQYFPSNYVEDISTADFEELEKQIIEDNPLGSLCRGILDLNTYNVVKAPQGKNQKSFVFILEPKQQGDPPVEFATDRVEELFEWFQSIREITWKIDTKENNMKYWEKNQSIAIELSDLVVYCKPTSKTKDNLENPDFREIRSFVETKADSIIRQKPVDLLKYNQKGLTRVYPKGQRVDSSNYDPFRLWLCGSQMVALNFQTADKYMQMNHALFSLNGRTGYVLQPESMRTEKYDPMPPESQRKILMTLTVKVLGARHLPKLGRSIACPFVEVEICGAEYDNNKFKTTVVNDNGLSPIWAPTQEKVTFEIYDPNLAFLRFVVYEEDMFSDPNFLAHATYPIKAVKSGFRSVPLKNGYSEDIELASLLVFCEMRPVLESEEELYSSCRQLRRRQEELNNQLFLYDTHQNLRNANRDALVKEFSVNENQLQLYQEKCNKRLREKRVSNSKFYS
partner: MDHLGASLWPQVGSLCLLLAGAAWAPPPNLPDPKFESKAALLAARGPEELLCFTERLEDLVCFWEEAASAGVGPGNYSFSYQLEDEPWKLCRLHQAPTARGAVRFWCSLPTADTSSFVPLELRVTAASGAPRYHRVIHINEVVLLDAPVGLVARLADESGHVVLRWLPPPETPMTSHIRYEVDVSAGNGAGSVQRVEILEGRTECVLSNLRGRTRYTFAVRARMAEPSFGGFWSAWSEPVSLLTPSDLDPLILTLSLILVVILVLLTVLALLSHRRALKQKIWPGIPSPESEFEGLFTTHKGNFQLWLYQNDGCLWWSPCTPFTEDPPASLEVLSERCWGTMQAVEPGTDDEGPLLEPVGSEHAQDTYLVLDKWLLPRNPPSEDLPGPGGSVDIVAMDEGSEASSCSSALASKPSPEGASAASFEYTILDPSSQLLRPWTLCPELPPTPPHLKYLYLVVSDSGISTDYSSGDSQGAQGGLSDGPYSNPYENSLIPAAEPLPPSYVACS
B2: Erythropoietin receptor (Homo sapiens), P19235 (parent)
chain: B1 partner
partner: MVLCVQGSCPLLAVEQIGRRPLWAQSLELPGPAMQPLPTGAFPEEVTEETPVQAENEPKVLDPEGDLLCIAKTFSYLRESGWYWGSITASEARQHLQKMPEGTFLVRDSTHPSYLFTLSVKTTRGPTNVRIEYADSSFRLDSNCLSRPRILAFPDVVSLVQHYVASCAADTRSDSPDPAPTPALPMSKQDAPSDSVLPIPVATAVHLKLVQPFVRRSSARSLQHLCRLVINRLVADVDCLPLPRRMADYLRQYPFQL
B3: Erythropoietin receptor (Homo sapiens), P19235 (parent)
chain: B1 partner
partner: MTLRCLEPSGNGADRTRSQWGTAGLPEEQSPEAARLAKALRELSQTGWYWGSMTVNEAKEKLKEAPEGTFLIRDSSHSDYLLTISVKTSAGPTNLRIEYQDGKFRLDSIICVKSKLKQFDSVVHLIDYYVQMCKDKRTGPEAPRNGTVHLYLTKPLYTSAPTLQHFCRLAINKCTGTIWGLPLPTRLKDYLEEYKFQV
B4: Erythropoietin receptor (Homo sapiens), P19235 (parent)
chain: B1 partner
partner: B1 chain

Variants of: B1
Details: with epor_human EPOR

effect of a mutation on the interaction | Variant
decreasing interaction | K367F

Variants of: B2
Details: with cish_mouse Cish

effect of a mutation on the interaction | Variant
decreasing interaction | Y426F

Variants of: B2
Details: with cish_mouse Cish
Remark: another data set of the same source

effect of a mutation on the interaction | Variant
decreasing interaction | Y454F

Variants of: B3
Details: with socs2_mouse Socs2, O35717

effect of a mutation on the interaction | Variant
decreasing interaction | Y426F

Variants of: B4
Details: with plcg2_human PLCG2, P16885

effect of a mutation on the interaction | Variant
decreasing interaction | Y504F
decreasing interaction | Y456F

Source: IntAct's records for PubMed 15644415
